Test results: publication doi:10.1101/2020.10.15.341636 (bioRxiv, 2020)

B1: mAb 52 IgG (antibody, V domains shown)
VH: QVQLVQSGAEVKKPGSSVKVSCKASGYTFTSYGISWVRQAPGQGLEWMGGIIPMFGTTNYAQKFQGRVTITADKSTSTAYMELSSLRSEDTAVYYCARDRGDTIDYWGQGTLVTVSS
VL: DIQMTQSPSSLSASVGDRVTITCRASQGISNNLNWYQQKPGKAPKLLIYAASSLESGVPSRFSGSGSGTDFTLTISSLQPEDFATYYCQQGNGFPLTFGPGTKVDIK
B2: 52 Multabody (other)
VH: B1 VH
VL: B1 VL
B3: mAb 298 IgG (antibody, V domains shown)
VH: QVQLVQSGAEVKKPGASVKVSCKASGGTFSTYGISWVRQAPGQGLEWMGWISPNSGGTDLAQKFQGRVTMTRDTSTSTVYMELSSLRSEDTAVYYCASDPRDDIAGGYWGQGTLVTVSS
VL: not shown
B4: mAb 324 IgG (antibody, V domains shown)
VH: QVQLVQSGAEVKKPGASVKVSCKASGGTFNNYGISWVRQAPGQGLEWMGWMNPNSGNTGYAQKFQGRVTMTRDTSTSTVYMELSSLRSEDTAVYYCARVGDYGDYIVSPFDLWGRGTLVTVSS
VL: DIQMTQSPSSLSASVGDRVTITCRASQSITTYLNWYQQKPGKAPKLLIYDASNLETGVPSRFSGSGSGTDFTLTISSLQPEDFATYYCQQSYSTPPTFGQGTKVEIK
B5: 324 Multabody (other)
VH: B4 VH
VL: B4 VL
B6: Fab 324 (Fab, V domains shown)
VH: B4 VH
VL: B4 VL
B7: mAb 236 IgG (antibody, V domains shown)
VH: QVQLVQSGAEVKKPGASVKVSCKASGGTFTSYGINWVRQAPGQGLEWMGWMNPNSGNTGYAQKFQGRVTMTRDTSTSTVYMELSSLRSEDTAVYYCASRGIQLLPRGMDVWGQGTTVTVSS
VL: not shown

Legend:
[1] = target: T1, SARS-CoV-2 prefusion S ectodomain (BEI NR52394) (SARS-CoV-2 Wuhan-Hu-1, UniProt P0DTC2, stabilised); experiment: BLI
[2] = target: T1, SARS-CoV-2 prefusion S ectodomain (BEI …); experiment: cell-based or functional assay
[3] = target: T1, SARS-CoV-2 prefusion S ectodomain (BEI …); experiment: cryo-EM structure

Binder | binding result [1] | other results
B1 | binds | –
B2 | binds | –
B3 | – | IC50 of neutralization of SARS-CoV-2 pseudovirus (PsV) [2]: ~30 mg/L
B4 | binds | –
B5 | binds | –
B6 | – | binding result [3]: binds
B7 | binds | –
